Reference: US20230279137A1 (EVOTEC INTERNATIONAL, published 2023)

Legend:
Assay in all cases: cell-based or functional assay
human CD40 [1] = biological target: T1, human CD40 (human, UniProt P25942 21-277)
[2] = biological target: T2, human type I IFN receptor on HEK-Blue IFN-α/β cells (human, UniProt P17181 28-557; P48551 27-515)
T2 sequence (looked up) 1: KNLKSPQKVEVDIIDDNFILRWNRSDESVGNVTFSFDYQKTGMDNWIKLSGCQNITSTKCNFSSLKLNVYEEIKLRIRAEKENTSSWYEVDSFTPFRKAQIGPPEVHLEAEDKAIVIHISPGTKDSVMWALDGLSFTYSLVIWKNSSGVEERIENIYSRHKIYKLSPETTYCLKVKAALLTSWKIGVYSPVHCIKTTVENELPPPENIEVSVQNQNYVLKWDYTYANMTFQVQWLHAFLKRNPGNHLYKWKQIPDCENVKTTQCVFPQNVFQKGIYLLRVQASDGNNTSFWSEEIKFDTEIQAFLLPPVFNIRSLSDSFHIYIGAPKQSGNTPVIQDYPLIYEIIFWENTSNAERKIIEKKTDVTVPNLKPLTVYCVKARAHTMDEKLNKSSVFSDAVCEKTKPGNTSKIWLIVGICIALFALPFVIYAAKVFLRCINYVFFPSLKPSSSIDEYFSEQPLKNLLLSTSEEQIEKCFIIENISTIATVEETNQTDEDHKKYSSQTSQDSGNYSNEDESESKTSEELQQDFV
T2 sequence (looked up) 2: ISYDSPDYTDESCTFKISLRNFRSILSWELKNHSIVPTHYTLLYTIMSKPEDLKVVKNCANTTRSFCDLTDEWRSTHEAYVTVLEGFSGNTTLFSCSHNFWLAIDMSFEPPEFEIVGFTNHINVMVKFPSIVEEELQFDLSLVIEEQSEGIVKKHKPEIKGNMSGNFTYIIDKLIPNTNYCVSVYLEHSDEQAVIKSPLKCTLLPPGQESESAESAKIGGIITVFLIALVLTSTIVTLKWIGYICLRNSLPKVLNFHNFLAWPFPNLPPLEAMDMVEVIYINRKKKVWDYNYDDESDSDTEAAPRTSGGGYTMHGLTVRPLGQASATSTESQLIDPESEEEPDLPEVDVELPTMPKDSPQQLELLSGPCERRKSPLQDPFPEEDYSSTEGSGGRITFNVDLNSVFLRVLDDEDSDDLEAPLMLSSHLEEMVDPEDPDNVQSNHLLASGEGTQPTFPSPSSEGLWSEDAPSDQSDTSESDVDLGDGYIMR

human CD40 [3] = biological target: T1, human CD40; remark: listed apart in the source

T1 sequence (P25942 21-277): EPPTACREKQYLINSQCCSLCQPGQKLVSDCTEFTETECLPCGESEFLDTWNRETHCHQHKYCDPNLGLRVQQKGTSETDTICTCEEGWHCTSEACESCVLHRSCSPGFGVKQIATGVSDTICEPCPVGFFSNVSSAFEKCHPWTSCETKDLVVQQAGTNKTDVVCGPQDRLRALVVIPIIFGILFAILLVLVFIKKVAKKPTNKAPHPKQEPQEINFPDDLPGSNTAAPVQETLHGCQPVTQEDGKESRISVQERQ

| Binder | CD40 EC50 (ng/mL), NFκB-SEAP reporter in HEK-Blue CD40L cells (human CD40 [1]) | IFNβ EC50 (ng/mL), SEAP reporter in HEK-Blue IFN-α/β cells [2] | EC50 for agonistic CD40, HEK-Blue CD40L cells, experiment of FIG. 3 (human CD40 [3]) | EC50 on CD40 pathway, HEK-Blue CD40L cells (human CD40 [3]) | mean EC50 for agonistic CD40, HEK-Blue CD40L cells (human CD40 [3]) |
| --- | --- | --- | --- | --- | --- |
| IFA12 (antibody, human IgG2, kappa) light: DIQMTQSPSSVSASVGDRVTITCRASQGIYSWLAWYQQKPGKAPNLLIYTASTLQSGVPSRFSGSGSGTDFTLTISSLQPEDFATYYCQQANIFPLTFGGGTKVEIKRTVAAPSVFIFPPSDEQLKSGTASVVCLLNNFYPREAKVQWKVDNALQSGNSQESVTEQDSKDSTYSLSSTLTLSKADYEKHKVYACEVTHQGLSSPVTKSFNRGECPAPAMSYNLLGFLQRSSNFQCQKLLWQLNGRLEYCLKDRMNFDIPEEIKQLQQFQKEDAALTIYEMLQNIFAIFRQDSSSTGWNETIVENLLANVYHQINHLKTVLEEKLEKEDFTRGKLMSSLHLKRYYGRILHYLKAKEYSHCAWTIVRVEILRNFYFINRLTGYLRN heavy: not shown | 105 ng/mL | 3.64 ng/mL |  |  |  |
| IFA13 (antibody, human IgG2, kappa) light: DIQMTQSPSSVSASVGDRVTITCRASQGIYSWLAWYQQKPGKAPNLLIYTASTLQSGVPSRFSGSGSGTDFTLTISSLQPEDFATYYCQQANIFPLTFGGGTKVEIKRTVAAPSVFIFPPSDEQLKSGTASVVCLLNNFYPREAKVQWKVDNALQSGNSQESVTEQDSKDSTYSLSSTLTLSKADYEKHKVYACEVTHQGLSSPVTKSFNRGECPAPAMSYNLLGFLQRSSNFQSQKLLWQLNGRLEYCLKDRMNFDIPEEIKQLQQFQKEDAALTIYEMLQNIFAIFRQDSSSTGWNETIVENLLANVYHQINHLKTVLEEKLEKEDFTRGKLMSSLHLKRYYGRILHYLKAKEYSHCAWTIVRVEILRNFYFINRLTGYLRN heavy: not shown | 192 ng/mL | 0.7 ng/mL |  |  |  |
| IFA1 (antibody, human IgG2, kappa) light: DIQMTQSPSSVSASVGDRVTITCRASQGIYSWLAWYQQKPGKAPNLLIYTASTLQSGVPSRFSGSGSGTDFTLTISSLQPEDFATYYCQQANIFPLTFGGGTKVEIKRTVAAPSVFIFPPSDEQLKSGTASVVCLLNNFYPREAKVQWKVDNALQSGNSQESVTEQDSKDSTYSLSSTLTLSKADYEKHKVYACEVTHQGLSSPVTKSFNRGECAEAAAKEAAAKAMSYNLLGFLQRSSNFQCQKLLWQLNGRLEYCLKDRMNFDIPEEIKQLQQFQKEDAALTIYEMLQNIFAIFRQDSSSTGWNETIVENLLANVYHQINHLKTVLEEKLEKEDFTRGKLMSSLHLKRYYGRILHYLKAKEYSHCAWTIVRVEILRNFYFINRLTGYLRN heavy: not shown | 74.1 ng/mL | 1.64 ng/mL |  |  |  |
| IFA2 (antibody, human IgG2, kappa) light: DIQMTQSPSSVSASVGDRVTITCRASQGIYSWLAWYQQKPGKAPNLLIYTASTLQSGVPSRFSGSGSGTDFTLTISSLQPEDFATYYCQQANIFPLTFGGGTKVEIKRTVAAPSVFIFPPSDEQLKSGTASVVCLLNNFYPREAKVQWKVDNALQSGNSQESVTEQDSKDSTYSLSSTLTLSKADYEKHKVYACEVTHQGLSSPVTKSFNRGECAEAAAKEAAAKAMSYNLLGFLQRSSNFQSQKLLWQLNGRLEYCLKDRMNFDIPEEIKQLQQFQKEDAALTIYEMLQNIFAIFRQDSSSTGWNETIVENLLANVYHQINHLKTVLEEKLEKEDFTRGKLMSSLHLKRYYGRILHYLKAKEYSHCAWTIVRVEILRNFYFINRLTGYLRN heavy: not shown | 111 ng/mL | 0.14 ng/mL |  |  |  |
| IFA20 (antibody, human IgG2, kappa) light: DIQMTQSPSSVSASVGDRVTITCRASQGIYSWLAWYQQKPGKAPNLLIYTASTLQSGVPSRFSGSGSGTDFTLTISSLQPEDFATYYCQQANIFPLTFGGGTKVEIKRTVAAPSVFIFPPSDEQLKSGTASVVCLLNNFYPREAKVQWKVDNALQSGNSQESVTEQDSKDSTYSLSSTLTLSKADYEKHKVYACEVTHQGLSSPVTKSFNRGECAEAAAKEAAAKAAEAAAKEAAAKAMSYNLLGFLQRSSNFQSQKLLWQLNGRLEYCLKDRMNFDIPEEIKQLQQFQKEDAALTIYEMLQNIFAIFRQDSSSTGWNETIVENLLANVYHQINHLKTVLEEKLEKEDFTRGKLMSSLHLKRYYGRILHYLKAKEYSHCAWTIVRVEILRNFYFINRLTGYLRN heavy: not shown | 182 ng/mL | 2.34 ng/mL |  |  |  |
| IFA19 (antibody, human IgG2, kappa) light: DIQMTQSPSSVSASVGDRVTITCRASQGIYSWLAWYQQKPGKAPNLLIYTASTLQSGVPSRFSGSGSGTDFTLTISSLQPEDFATYYCQQANIFPLTFGGGTKVEIKRTVAAPSVFIFPPSDEQLKSGTASVVCLLNNFYPREAKVQWKVDNALQSGNSQESVTEQDSKDSTYSLSSTLTLSKADYEKHKVYACEVTHQGLSSPVTKSFNRGECSGGTSGSTSGTGSMSYNLLGFLQRSSNFQSQKLLWQLNGRLEYCLKDRMNFDIPEEIKQLQQFQKEDAALTIYEMLQNIFAIFRQDSSSTGWNETIVENLLANVYHQINHLKTVLEEKLEKEDFTRGKLMSSLHLKRYYGRILHYLKAKEYSHCAWTIVRVEILRNFYFINRLTGYLRN heavy: not shown | 110 ng/mL | 1.3 ng/mL |  |  |  |
| IFA8 (antibody, human IgG2, kappa) heavy: not shown light: DIQMTQSPSSVSASVGDRVTITCRASQGIYSWLAWYQQKPGKAPNLLIYTASTLQSGVPSRFSGSGSGTDFTLTISSLQPEDFATYYCQQANIFPLTFGGGTKVEIKRTVAAPSVFIFPPSDEQLKSGTASVVCLLNNFYPREAKVQWKVDNALQSGNSQESVTEQDSKDSTYSLSSTLTLSKADYEKHKVYACEVTHQGLSSPVTKSFNRGEC | 39.7 ng/mL | 2.9 ng/mL |  |  |  |
| IFA11 (antibody, human IgG2, kappa) heavy: not shown light: DIQMTQSPSSVSASVGDRVTITCRASQGIYSWLAWYQQKPGKAPNLLIYTASTLQSGVPSRFSGSGSGTDFTLTISSLQPEDFATYYCQQANIFPLTFGGGTKVEIKRTVAAPSVFIFPPSDEQLKSGTASVVCLLNNFYPREAKVQWKVDNALQSGNSQESVTEQDSKDSTYSLSSTLTLSKADYEKHKVYACEVTHQGLSSPVTKSFNRGEC | 42.8 ng/mL | 1.78 ng/mL |  |  |  |
| IFA9 (antibody, human IgG2, kappa) heavy: not shown light: DIQMTQSPSSVSASVGDRVTITCRASQGIYSWLAWYQQKPGKAPNLLIYTASTLQSGVPSRFSGSGSGTDFTLTISSLQPEDFATYYCQQANIFPLTFGGGTKVEIKRTVAAPSVFIFPPSDEQLKSGTASVVCLLNNFYPREAKVQWKVDNALQSGNSQESVTEQDSKDSTYSLSSTLTLSKADYEKHKVYACEVTHQGLSSPVTKSFNRGEC | 42.6 ng/mL | 0.7 ng/mL |  |  |  |
| IFA10 (antibody, human IgG2, kappa) heavy: not shown light: DIQMTQSPSSVSASVGDRVTITCRASQGIYSWLAWYQQKPGKAPNLLIYTASTLQSGVPSRFSGSGSGTDFTLTISSLQPEDFATYYCQQANIFPLTFGGGTKVEIKRTVAAPSVFIFPPSDEQLKSGTASVVCLLNNFYPREAKVQWKVDNALQSGNSQESVTEQDSKDSTYSLSSTLTLSKADYEKHKVYACEVTHQGLSSPVTKSFNRGEC | 26.5 ng/mL | 4.5 ng/mL |  |  |  |
| agonistic anti-CD40 antibody CP870,893 (antibody, human IgG2, kappa) heavy: not shown light: DIQMTQSPSSVSASVGDRVTITCRASQGIYSWLAWYQQKPGKAPNLLIYTASTLQSGVPSRFSGSGSGTDFTLTISSLQPEDFATYYCQQANIFPLTFGGGTKVEIKRTVAAPSVFIFPPSDEQLKSGTASVVCLLNNFYPREAKVQWKVDNALQSGNSQESVTEQDSKDSTYSLSSTLTLSKADYEKHKVYACEVTHQGLSSPVTKSFNRGEC |  |  | 0.057 µg/mL | 0.03 to 0.08 µg/mL | 0.048 µg/mL |
